{"source": "patent US20230331827A1", "about": "“POTASSIUM CHANNEL INHIBITORS” (priority 2017, published 2023)", "molecules": {"B1": {"name": "KB_A12_ShK: ShK toxin in VL CDR2 of KB_A12, IgG1 (antibody, V domains shown)", "VH": "EVQLVESGGGLVRPGGSLRLSCAASGFTFSSYAMSWVRQAPGKGLEWVSAISGSGGSTYYADSVKGRFTISRDNTKNSLYLQMTSLRADDTAFYYCVKDFGPGYGTGWFDYWGPGTLVTVSS", "VL": "QSVLTQPPSVSEAPRQRVTITCSGSSSNIGNNAVNWYQQLPGKAPKLLIYAAGRRSCIDTIPKSRCTAFQCKHSMKYRLSFCRKTCGTCANSGVSDRFSAAKSGTSASLAINGLRSEDEADYYCAAWDDSLNGYVFGTGTKLTVLG"}, "B2": {"name": "KB_A07: EETI-II knottin fused into VL CDR2, D1A12 VH; parental KnotBody, isotype control (antibody, V domains shown)", "VH": "EVQLVESGGGLVRPGGSLRLSCAASGFTFSSYAMSWVRQAPGKGLEWVSAISGSGGSTYYADSVKGRFTISRDNTKNSLYLQMTSLRADDTAFYYCVKDFGPGYGTGWFDYWGPGTLVTVSS", "VL": "DIQMTQSPSSLSASVGDRVTITCRASQSISSYLNWYQQKPGKAPKLLIYAAGVCPRILMRCKQDSDCLAGCVCGPNGFCGSRSGVPSRFSGSGSGTDFTLTISSLQPEDFATYYCQQGASPPYTFGQGTKVEIKRT"}, "B3": {"name": "KB_A12: EETI-II knottin fused into VL CDR2, D1A12 VH; parental KnotBody, isotype control (antibody, V domains shown)", "VH": "EVQLVESGGGLVRPGGSLRLSCAASGFTFSSYAMSWVRQAPGKGLEWVSAISGSGGSTYYADSVKGRFTISRDNTKNSLYLQMTSLRADDTAFYYCVKDFGPGYGTGWFDYWGPGTLVTVSS", "VL": "QSVLTQPPSVSEAPRQRVTITCSGSSSNIGNNAVNWYQQLPGKAPKLLIYAAGRCPRILMRCKQDSDCLAGCVCGPNGFCGANSGVSDRFSAAKSGTSASLAINGLRSEDEADYYCAAWDDSLNGYVFGTGTKLTVLGQP"}}, "key": {"huKv1.3": {"biological_target": "T1, huKv1.3 (Homo sapiens, UniProt P22001)", "T1 construct": "host or cells: CHO", "T1 sequence (P22001 whole entry)": "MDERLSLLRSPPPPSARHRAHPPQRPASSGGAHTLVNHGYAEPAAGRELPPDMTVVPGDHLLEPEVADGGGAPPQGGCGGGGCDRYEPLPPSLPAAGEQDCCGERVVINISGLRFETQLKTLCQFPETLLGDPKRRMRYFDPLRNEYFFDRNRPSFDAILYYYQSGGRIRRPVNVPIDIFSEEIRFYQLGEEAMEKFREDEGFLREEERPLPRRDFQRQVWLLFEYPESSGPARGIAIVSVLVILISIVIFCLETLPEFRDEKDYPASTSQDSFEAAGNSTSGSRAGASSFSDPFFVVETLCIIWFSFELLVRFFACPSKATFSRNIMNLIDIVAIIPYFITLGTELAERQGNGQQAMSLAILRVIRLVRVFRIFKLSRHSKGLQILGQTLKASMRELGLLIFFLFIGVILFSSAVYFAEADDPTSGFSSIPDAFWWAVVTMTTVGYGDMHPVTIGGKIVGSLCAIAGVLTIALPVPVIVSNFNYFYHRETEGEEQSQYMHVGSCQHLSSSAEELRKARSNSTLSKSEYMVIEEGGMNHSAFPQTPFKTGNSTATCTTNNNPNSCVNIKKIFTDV", "assay": "QPatch automated whole-cell patch-clamp, CHO cells stably expressing huKv1.3 (Example 8)", "assay_type": "cell-based", "experimental": "Knottin Kv 1.3 and ASIC1a blockers expressed in the KnotBody format (see examples 6 and 7) were tested for their ability to inhibit the function of the ion channel targets. The effect of these KnotBodies on cells expressing the human Kv 1.3 (huKv1.3) or human ASIC1a channels was assessed using QPatch automated whole-cell patch-clamp electrophysiology (Sophion).\nFor the testing of Kv1.3, CHO cells stably expressing huKv1.3 (Charles River Lab) were analysed using the QPatch electrophysiology assay in the presence or absence of the KnotBody fusions or the antibody isotypes (negative) controls. Internal and external physiological solutions were freshly prepared prior to the assay. The extracellular solution contained 145 mM NaCl, 4 mM KCl, 2 mM CaCl2, 1 mM MgCl2, 10 mM HEPES and 10 mM glucose; the pH was adjusted to 7.4 with NaOH; the osmolarity was ~ 305 mOsm/L. The intracellular solution contained: KF (120 mM), KCl (20 mM), HEPES (10 mM) and EGTA (10 mM); the pH was adjusted to 7.2 with KOH; osmolarity was ~ 320 mOsm/L.\nA series of depolarising voltage (channel activating) pulses were used to monitor the channel currents upon adding control (extracellular solution) to define a control baseline of current activity. To these measured control currents ascending concentrations of KnotBodies or parental antibody isotypes (control molecules) were applied to the external bathing solution (2.2 µM - 0.5 nM, diluted in the extracellular solution). KnotBodies KB_A12 and KB_A07 (EETI-II fusions) were used as isotype controls for the testing. From a holding voltage of -80 mV a depolarising, activating voltage pulses of +30 or +80 mV were applied for 300 ms, every 5 or 10 seconds. The elicited, maximum outward current values measured during the activating step for each solution exchange period were averaged (n = 3 - 8 for each concentration applied) and plotted as concentration-response curves. KB_A07_ShK, KB_A12_ShK and KB_A07_Kaliotoxin (KTX) fusion proteins all inhibited the huKv1.3 currents in a concentration dependent manner with IC50S of approximately 20 nM, 40 nM and 900 nM respectively."}, "trypsin": {"tested_on": "trypsin", "assay": "KnotBody Fab TRF binding assay on biotinylated trypsin", "details": "for TRF signal for 0.6 ug/mL Fab: Fab 0.6 ug/mL; for TRF signal for 2.4 ug/mL Fab: Fab 2.4 ug/mL; for TRF signal for 10 ug/mL Fab: Fab 10 ug/mL", "experimental": "In order to confirm the trypsin binding ability of KnotBodies in Fab format, purified proteins were tested for binding to trypsin using a TRF binding assay. In this assay binding of KnotBody Fabs ([…]) to biotinylated trypsin (immobilised on streptavidin coated Maxisorp™ plates) was detected using a mouse anti-CH1 antibody followed by a europium conjugated anti-mouse antibody (Table 4). 7 KnotBodies (KB_A04, KB_A01, KB_A05, KB_A07, KB_A08, KB_A10, KB_A12) were chosen for crystallisation. DNA prepared for these clones were transfected into 500 ml HEK-293F cells as described before. Expressed proteins were purified using CaptureSelect IgG-CH1 affinity matrix. Purified proteins were initially subjected to crystallisation trials using commercially available crystallisation screens (Supplier). Well-defined crystals were readily obtained for KB_A12 and KB_A05. Crystallisation conditions for these two clones were further optimised and the following condition was used to generate diffraction quality crystals: 0.1 M MES pH=6.5, 25 %w/v PEG MME 2000 and 0.1 M Tris.Cl, 50% PEG MME, 10 mM NiCl2. Complete diffraction data was collected on these crystals at 100 K under liquid nitrogen stream. Collected data was processed using PROTEUM2 software (Bruker). The crystal structure of the knottin-fused Fab antibodies was resolved using molecular replacement technique^109 using Phenix software v 1.8.1-1168^110. Resulting structure was further refined using Phenix.Refine^111. The templates for molecular replacement were downloaded from PDB website (www.rcsb.org/pdb, PDB codes: 3G04 for light chain and 3QOS for heavy chain). KnotBody KB_A12 and KB_A05 sequences are given below. An additional AlaSer sequence is introduced at the N terminus of the light chain from the Nhe1 site used in cloning.\nIn order to compare the performance of the KnotBodies with short and long linkers, purified Fabs were tested for binding to trypsin by ELISA. In this assay binding of KnotBody Fabs (at 0.5 µg/ml) to biotinylated trypsin (5 µg/ml immobilised on streptavidin coated Maxisorp™ plates) was detected using a mouse anti-CH1 antibody (Hybridoma Reagent Laboratories) followed by a europium conjugated anti-mouse antibody (Perkin Elmer, Cat. No. AD0124). The trypsin binding capability of KB_A07 and KB_A12 KnotBodies were greatly diminished when the short selected linkers were replaced with long and flexible linkers (FIG. 22)."}, "LOX-1": {"biological_target": "LOX-1 (Homo sapiens, UniProt P78380)", "assay": "Phage TRF binding assay on LOX-1", "details": "phage displayed, FIG. 19", "experimental": "In order to test the functionality of these adhiron-antibody fusions, monoclonal phage prepared from each clone was assessed for binding to LOX-1 in a TRF binding assay. In this assay, LOX-1 (immobilised directly on Maxisorp™ plates) binding of phage displaying adhiron-antibody fusion was detected using a mouse anti-M13 antibody (GE Healthcare) followed by europium conjugated anti-mouse antibody (Perkin Elmer). Parent KnotBodies KB_A07 and KB_A12 (EETI-II fusions) were included as controls. Proteins cMET-FC, GAS6-CD4, FGFR4-CD4, UPA and B-gal were used to examine non-specific binding."}, "[1]": {"details": "Kv1.3 channels, IgG KnotBody, Table 11A"}}}
{"molecule": "B1", "values": [{"measurement": "IC50", "setting": "huKv1.3; [1]", "result": 20, "unit": "nM"}, {"measurement": "IC50", "setting": "huKv1.3; huKv1.3 currents, text of Example 8, approximately", "result": "~40", "unit": "nM"}]}
{"molecule": "B2", "values": [{"measurement": "TRF signal for 0.6 ug/mL Fab", "setting": "trypsin", "result": 107814}, {"measurement": "TRF signal for 2.4 ug/mL Fab", "setting": "trypsin", "result": 201003}, {"measurement": "TRF signal for 10 ug/mL Fab", "setting": "trypsin", "result": 226082}, {"measurement": "IC50", "setting": "huKv1.3; [1]", "result": "> 10000", "unit": "nM"}, {"measurement": "binding to LOX-1", "setting": "LOX-1", "result": "no detectable binding to the LOX-1"}]}
{"molecule": "B3", "values": [{"measurement": "TRF signal for 0.6 ug/mL Fab", "setting": "trypsin", "result": 102132}, {"measurement": "TRF signal for 2.4 ug/mL Fab", "setting": "trypsin", "result": 221989}, {"measurement": "TRF signal for 10 ug/mL Fab", "setting": "trypsin", "result": 252832}, {"measurement": "IC50", "setting": "huKv1.3; [1]", "result": "> 10000", "unit": "nM"}, {"measurement": "binding to LOX-1", "setting": "LOX-1", "result": "no detectable binding to the LOX-1"}]}
